Results published in paper doi:10.1101/2021.06.06.447241 (bioRxiv, 2021).

Molecular target: Ssa1 (Hsp70) (Saccharomyces cerevisiae, UniProt P10591 1-642)
Assay: cross-linking

Sequence of Ssa1 (Hsp70) (P10591 whole entry): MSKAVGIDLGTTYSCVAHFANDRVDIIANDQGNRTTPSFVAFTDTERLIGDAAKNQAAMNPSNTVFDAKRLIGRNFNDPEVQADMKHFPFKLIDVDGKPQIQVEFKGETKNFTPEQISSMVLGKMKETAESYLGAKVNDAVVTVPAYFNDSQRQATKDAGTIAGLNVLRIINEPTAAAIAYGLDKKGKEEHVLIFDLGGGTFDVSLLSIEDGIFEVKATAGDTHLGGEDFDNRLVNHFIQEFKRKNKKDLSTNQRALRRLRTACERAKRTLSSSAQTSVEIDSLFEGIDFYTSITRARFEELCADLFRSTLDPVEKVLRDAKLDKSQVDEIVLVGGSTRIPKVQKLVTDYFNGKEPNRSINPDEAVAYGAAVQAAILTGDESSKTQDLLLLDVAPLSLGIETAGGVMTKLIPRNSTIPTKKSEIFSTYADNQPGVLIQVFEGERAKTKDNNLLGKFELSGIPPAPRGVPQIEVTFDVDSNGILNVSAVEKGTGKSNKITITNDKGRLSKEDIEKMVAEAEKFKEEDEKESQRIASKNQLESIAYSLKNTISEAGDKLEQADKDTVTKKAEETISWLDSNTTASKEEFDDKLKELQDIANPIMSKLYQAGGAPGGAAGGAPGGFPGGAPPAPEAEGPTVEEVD

B1: Ydj1 (Hsp40) (natural protein)
chain: MVKETKFYDILGVPVTATDVEIKKAYRKCALKYHPDKNPSEEAAEKFKEASAAYEILSDPEKRDIYDQFGEDGLSGAGGAGGFPGGGFGFGDDIFSQFFGAGGAQRPRGPQRGKDIKHEISASLEELYKGRTAKLALNKQILCKECEGRGGKKGAVKKCTSCNGQGIKFVTRQMGPMIQRFQTECDVCHGTGDIIDPKDRCKSCNGKKVENERKILEVHVEPGMKDGQRIVFKGEADQAPDVIPGDVVFIVSERPHKSFKRDGDDLVYEAEIDLLTAIAGGEFALEHVSGDWLKVGIVPGEVIAPGMRKVIEGKGMPIPKYGGYGNLIIKFTIKFPENHFTSEENLKKLEEILPPRIVPAIPKKATVDECVLADFDPAKYNRTRASRGGANYDSDEEEQGGEGVQCASQ
- binding result: binds
